The source of these data is patent US6555105 (GlaxoSmithKline, dated 2003).

The assay addresses T1, recombinant CC-CKR1 receptor (UniProt P32246 1-355, limits assumed).
T1 construct: whole, on cells; The assay used either THP-1 cells or COS cells expressing recombinant CC-CKR1; also called CCKR1 receptors
T1 sequence (looked up): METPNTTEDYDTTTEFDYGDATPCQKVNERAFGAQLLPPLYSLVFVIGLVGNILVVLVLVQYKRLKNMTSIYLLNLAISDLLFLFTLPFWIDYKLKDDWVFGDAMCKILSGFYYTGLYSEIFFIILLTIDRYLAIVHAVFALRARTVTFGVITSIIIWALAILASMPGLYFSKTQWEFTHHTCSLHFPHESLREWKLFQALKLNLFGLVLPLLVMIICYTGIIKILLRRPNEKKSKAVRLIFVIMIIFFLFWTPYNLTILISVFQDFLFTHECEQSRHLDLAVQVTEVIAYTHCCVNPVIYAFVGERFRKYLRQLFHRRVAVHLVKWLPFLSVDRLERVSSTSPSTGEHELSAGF
The assay is described as follows: radioligand competition on cells (THP-1 or COS expressing CC-CKR1), [125I]RANTES tracer, competitor Met-RANTES. On the procedure: The competition assay was carried out in 96 well multi-screen filter-phase (Millipore, MADV N6500) which had been pretreated for 2 h with 50 mM HEPES buffer, pH 7.2 containing 1 mM CaCl_2, 5 mM MgCl_2, and 0.5% BSA, (binding buffer). The assay was performed using either THP-1 cells or COS cells expressing the recombinant CC-CKR1 receptor (Neote, K., DiGregorio, Mak, J. Y., Horuk, R., and Schall, T. J., (1993) Molecular cloning, functional expression, and signalling characteristics of a C—C chemokine receptor, *Cell* 72 415–425; Gao, J. L., et al, *J. Exp. Med.* 177 1421–7 (1993)). Each well contained 10^5 cells in a volume of 150 μl of binding buffer containing 0.4 nM [I^125]Mip-1a or 0.4 nM [I^125]RANTES (new England Nuclear, Nex 277) and varying concentrations of competing Met-RANTES. Assays were performed in triplicate. After 90 min incubation at 4° C., the cells were washed 4 times with 200 μl ice cold binding buffer containing 0.5 M NaCl which was removed by aspiration. The filters were dried, 3.5 ml Ultima Gold Scintillation fluid added (Packard) and counted on a Beckman LS5000 counter.

B1: methionylated RANTES (ligand)
chain: MSPYSSDTTPCCFAYIARPLPRAHIKEYFYTSGKCSNPAVVFVTRKNRQVCANPEKKWVREYINSLEMS
notes: also called Met-RANTES
As to B1, the binding result is recorded as “binds”.
